Source: PMC12130304

Target: C-terminal, Twin-Strep-HA-tagged AVRA13-1 (Blumeria hordei)
Test: SEC + other: negative-stain TEM

Substance “N-terminal, GST-tagged MLA13^K98E/K100E (receptor)” has a stoichiometry N of 1.
